Source: patent publication US20070071773

Legend:
recombinant murine MIP-2 = target: T1, recombinant murine MIP-2 (UniProt P10889)
T1 sequence: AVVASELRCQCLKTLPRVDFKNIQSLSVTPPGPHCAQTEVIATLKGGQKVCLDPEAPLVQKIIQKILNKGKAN

[1] = target: recombinant human IL-8/CXCL8 (UniProt P10145)
Sequence of recombinant human IL-8/CXCL8 (P10145 28-99): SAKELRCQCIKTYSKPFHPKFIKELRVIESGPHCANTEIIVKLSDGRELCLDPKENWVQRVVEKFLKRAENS

Substance: trypsin-like GAS protease (chemokine protease released into the culture supernatant of GAS strain JS95)
- MIP-2 degradation (dot blot) (recombinant murine MIP-2): The supernatant of JS95 degraded more than 80% of the recombinant MIP-2 protein
- IL-8 degradation (Western blot) [1]: JS95 supernatant effectively degraded IL-8
